Data from article PMC6018924, “Brassinosteroids regulate pavement cell growth by mediating BIN2-induced microtubule stabilization” (Journal of Experimental Botany, 2018).

Columns and labels:
Assay in all cases: pull-down; GST fusion bound to GST resin in 1× PBS pH 7.4, 0.1% Triton X-100, 2 h at 4 °C; incubated with purified tubulin-His 2 h at 4 °C; western blot with anti-His antibody
Settings in all cases: both partners purified
TUA1–His = biological target: T1, TUA1–His (Arabidopsis, UniProt P11139 1-450)
T1 construct: α-tubulin TUA1 of Arabidopsis, gene cloned into pET28a; also called tubulin–His; source: E. coli (Rosetta strain), purified using Ni-NTA agarose

TUB6–His = biological target: T2, TUB6–His (Arabidopsis, UniProt P29514 1-449)
T2 construct: β-tubulin TUB6 of Arabidopsis, gene cloned into pET28a; also called tubulin–His; source: E. coli (Rosetta strain), purified using Ni-NTA agarose

TUB4–His = biological target: T3, TUB4–His (Arabidopsis, UniProt P24636 1-444)
T3 construct: β-tubulin TUB4 of Arabidopsis, gene cloned into pET28a; also called tubulin–His; source: E. coli (Rosetta strain), purified using Ni-NTA agarose

TUB3–His = biological target: T4, TUB3–His (Arabidopsis, UniProt Q9ASR0 1-450)
T4 construct: β-tubulin TUB3 of Arabidopsis, gene cloned into pET28a; also called tubulin–His; source: E. coli (Rosetta strain), purified using Ni-NTA agarose

TUB7–His = biological target: T5, TUB7–His (Arabidopsis, UniProt P29515 1-449)
T5 construct: β-tubulin TUB7 of Arabidopsis, gene cloned into pET28a; also called tubulin–His; source: E. coli (Rosetta strain), purified using Ni-NTA agarose

TUA3–His = biological target: T6, TUA3–His (Arabidopsis, UniProt Q56WH1 1-450)
T6 construct: α-tubulin TUA3 of Arabidopsis, gene cloned into pET28a; also called tubulin–His; source: E. coli (Rosetta strain), purified using Ni-NTA agarose

TUB8–His = biological target: T7, TUB8–His (Arabidopsis, UniProt P29516 1-449)
T7 construct: β-tubulin TUB8 of Arabidopsis, gene cloned into pET28a; also called tubulin–His; source: E. coli (Rosetta strain), purified using Ni-NTA agarose

TUA5–His = biological target: T8, TUA5–His (Arabidopsis, UniProt B9DHQ0 1-450)
T8 construct: α-tubulin TUA5 of Arabidopsis, gene cloned into pET28a; also called tubulin–His; source: E. coli (Rosetta strain), purified using Ni-NTA agarose

Measured: binding result

T1 sequence (P11139 whole entry): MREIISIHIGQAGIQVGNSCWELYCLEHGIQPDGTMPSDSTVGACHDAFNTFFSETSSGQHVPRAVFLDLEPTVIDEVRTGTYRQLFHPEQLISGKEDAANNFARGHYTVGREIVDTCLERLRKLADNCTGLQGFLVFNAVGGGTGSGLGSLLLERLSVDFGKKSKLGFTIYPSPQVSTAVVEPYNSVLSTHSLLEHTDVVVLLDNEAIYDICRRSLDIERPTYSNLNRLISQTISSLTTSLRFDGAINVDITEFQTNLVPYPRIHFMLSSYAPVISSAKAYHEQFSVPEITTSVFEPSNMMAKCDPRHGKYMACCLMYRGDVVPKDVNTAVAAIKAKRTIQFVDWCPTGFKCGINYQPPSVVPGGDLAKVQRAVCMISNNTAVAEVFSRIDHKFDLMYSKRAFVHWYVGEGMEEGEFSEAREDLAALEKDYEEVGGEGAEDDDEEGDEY
T5 sequence (P29515 whole entry): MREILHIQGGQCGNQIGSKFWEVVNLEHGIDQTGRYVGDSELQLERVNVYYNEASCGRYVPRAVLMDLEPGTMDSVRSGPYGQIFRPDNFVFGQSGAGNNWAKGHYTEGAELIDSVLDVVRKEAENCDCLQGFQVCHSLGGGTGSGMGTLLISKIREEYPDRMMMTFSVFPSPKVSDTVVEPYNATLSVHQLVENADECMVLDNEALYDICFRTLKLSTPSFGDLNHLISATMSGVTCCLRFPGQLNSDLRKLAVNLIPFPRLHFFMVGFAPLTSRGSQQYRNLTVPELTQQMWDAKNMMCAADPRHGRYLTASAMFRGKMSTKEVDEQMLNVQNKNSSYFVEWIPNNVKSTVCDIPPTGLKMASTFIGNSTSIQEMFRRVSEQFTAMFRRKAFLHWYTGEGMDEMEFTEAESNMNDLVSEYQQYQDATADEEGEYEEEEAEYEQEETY
T2 sequence (P29514 whole entry): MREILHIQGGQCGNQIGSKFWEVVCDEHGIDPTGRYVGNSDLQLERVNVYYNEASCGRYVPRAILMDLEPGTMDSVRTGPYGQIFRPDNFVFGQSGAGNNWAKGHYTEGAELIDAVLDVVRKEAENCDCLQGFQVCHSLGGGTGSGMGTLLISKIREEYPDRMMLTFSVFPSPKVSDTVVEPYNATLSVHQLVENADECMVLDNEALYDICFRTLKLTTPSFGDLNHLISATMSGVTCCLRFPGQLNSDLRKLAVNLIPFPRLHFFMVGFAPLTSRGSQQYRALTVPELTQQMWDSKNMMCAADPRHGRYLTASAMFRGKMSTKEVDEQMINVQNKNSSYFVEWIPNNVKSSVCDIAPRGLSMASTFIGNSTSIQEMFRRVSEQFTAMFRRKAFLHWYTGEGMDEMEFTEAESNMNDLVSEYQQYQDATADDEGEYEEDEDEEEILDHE
T4 sequence (Q9ASR0 whole entry): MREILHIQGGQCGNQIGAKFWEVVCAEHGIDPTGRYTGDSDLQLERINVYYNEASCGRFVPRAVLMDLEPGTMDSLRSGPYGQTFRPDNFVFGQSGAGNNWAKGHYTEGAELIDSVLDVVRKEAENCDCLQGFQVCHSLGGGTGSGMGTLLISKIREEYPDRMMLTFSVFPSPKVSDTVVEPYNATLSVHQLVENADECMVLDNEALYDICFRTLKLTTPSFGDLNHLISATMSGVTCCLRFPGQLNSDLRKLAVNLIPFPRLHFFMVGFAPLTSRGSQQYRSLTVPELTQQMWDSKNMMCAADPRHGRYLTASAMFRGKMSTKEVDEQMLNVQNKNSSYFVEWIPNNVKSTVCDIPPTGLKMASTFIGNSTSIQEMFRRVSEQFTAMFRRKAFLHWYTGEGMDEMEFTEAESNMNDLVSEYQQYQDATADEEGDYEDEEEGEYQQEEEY
T7 sequence (P29516 whole entry): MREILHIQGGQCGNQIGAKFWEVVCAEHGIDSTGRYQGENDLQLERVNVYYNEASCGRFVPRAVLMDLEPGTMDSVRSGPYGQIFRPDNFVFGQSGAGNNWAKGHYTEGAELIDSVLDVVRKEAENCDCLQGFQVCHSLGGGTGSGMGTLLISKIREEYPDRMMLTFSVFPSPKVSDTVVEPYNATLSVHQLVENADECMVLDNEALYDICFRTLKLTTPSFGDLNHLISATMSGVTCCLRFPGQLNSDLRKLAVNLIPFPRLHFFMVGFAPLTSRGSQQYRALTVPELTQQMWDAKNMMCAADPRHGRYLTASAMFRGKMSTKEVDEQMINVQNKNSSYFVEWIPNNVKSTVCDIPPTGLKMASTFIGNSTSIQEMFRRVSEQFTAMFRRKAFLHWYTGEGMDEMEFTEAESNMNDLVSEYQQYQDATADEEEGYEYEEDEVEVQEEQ
T3 sequence (P24636 whole entry): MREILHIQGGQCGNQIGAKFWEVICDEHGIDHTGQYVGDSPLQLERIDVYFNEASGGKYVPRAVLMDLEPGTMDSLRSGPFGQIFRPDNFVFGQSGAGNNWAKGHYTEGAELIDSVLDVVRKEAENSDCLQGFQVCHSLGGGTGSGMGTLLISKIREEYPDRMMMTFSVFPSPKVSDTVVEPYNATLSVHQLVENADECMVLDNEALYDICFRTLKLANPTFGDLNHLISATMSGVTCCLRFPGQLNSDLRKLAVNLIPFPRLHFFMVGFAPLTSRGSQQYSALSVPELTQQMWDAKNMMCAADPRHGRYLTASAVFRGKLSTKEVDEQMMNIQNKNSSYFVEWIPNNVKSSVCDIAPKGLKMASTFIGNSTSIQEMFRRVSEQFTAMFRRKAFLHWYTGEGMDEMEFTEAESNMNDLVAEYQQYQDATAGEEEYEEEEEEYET
T6 sequence (Q56WH1 whole entry): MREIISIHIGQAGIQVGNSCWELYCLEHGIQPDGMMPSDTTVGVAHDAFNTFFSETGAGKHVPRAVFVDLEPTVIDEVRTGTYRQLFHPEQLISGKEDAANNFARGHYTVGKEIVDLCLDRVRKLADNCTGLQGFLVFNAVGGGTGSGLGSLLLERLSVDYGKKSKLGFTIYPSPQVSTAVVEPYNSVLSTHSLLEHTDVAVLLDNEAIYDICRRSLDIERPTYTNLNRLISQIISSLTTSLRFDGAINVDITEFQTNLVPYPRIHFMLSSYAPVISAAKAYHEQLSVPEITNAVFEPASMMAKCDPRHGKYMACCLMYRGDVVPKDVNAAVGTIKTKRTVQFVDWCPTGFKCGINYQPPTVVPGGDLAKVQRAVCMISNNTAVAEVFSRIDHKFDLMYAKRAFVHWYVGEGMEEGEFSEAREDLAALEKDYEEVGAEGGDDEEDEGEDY
T8 sequence (B9DHQ0 whole entry): as the sequence (Q56WH1 whole entry) above

B1: GST–BIN2 (BRASSINOSTEROID …2) (enzyme, Arabidopsis, UniProt Q39011 1-380, looked up)
chain: MADDKEMPAAVVDGHDQVTGHIISTTIGGKNGEPKQTISYMAERVVGTGSFGIVFQAKCLETGETVAIKKVLQDRRYKNRELQLMRVMDHPNVVCLKHCFFSTTSKDELFLNLVMEYVPESLYRVLKHYSSANQRMPLVYVKLYMYQIFRGLAYIHNVAGVCHRDLKPQNLLVDPLTHQVKICDFGSAKQLVKGEANISYICSRFYRAPELIFGATEYTTSIDIWSAGCVLAELLLGQPLFPGENAVDQLVEIIKVLGTPTREEIRCMNPHYTDFRFPQIKAHPWHKIFHKRMPPEAIDFASRLLQYSPSLRCTALEACAHPFFDELREPNARLPNGRPFPPLFNFKQEVAGSSPELVNKLIPDHIKRQLGLSFLNQSGT
notes: BRASSINOSTEROID …2 (BIN2), GSK3-like kinase of Arabidopsis, 380 aa; also called BIN2–GST; source: E. coli (Rosetta strain), purified using glutathione resin
binds: all assays above
